Non-standard residues stand in square brackets, D forms with d. No end group written: not given here.
T1: tau R3 domain 304-336 (Homo sapiens, UniProt P10636)
T1 chain: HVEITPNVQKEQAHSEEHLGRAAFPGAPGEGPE


How the values were obtained:
[1] = target: T2, full-length tau 441 (Homo sapiens, UniProt P10636); test: MST
[2] = target: T1, tau R3 domain 304-336; test: SPR
[3] = target: T2, full-length tau 441; test: SPR

T2 sequence (P10636 2-758): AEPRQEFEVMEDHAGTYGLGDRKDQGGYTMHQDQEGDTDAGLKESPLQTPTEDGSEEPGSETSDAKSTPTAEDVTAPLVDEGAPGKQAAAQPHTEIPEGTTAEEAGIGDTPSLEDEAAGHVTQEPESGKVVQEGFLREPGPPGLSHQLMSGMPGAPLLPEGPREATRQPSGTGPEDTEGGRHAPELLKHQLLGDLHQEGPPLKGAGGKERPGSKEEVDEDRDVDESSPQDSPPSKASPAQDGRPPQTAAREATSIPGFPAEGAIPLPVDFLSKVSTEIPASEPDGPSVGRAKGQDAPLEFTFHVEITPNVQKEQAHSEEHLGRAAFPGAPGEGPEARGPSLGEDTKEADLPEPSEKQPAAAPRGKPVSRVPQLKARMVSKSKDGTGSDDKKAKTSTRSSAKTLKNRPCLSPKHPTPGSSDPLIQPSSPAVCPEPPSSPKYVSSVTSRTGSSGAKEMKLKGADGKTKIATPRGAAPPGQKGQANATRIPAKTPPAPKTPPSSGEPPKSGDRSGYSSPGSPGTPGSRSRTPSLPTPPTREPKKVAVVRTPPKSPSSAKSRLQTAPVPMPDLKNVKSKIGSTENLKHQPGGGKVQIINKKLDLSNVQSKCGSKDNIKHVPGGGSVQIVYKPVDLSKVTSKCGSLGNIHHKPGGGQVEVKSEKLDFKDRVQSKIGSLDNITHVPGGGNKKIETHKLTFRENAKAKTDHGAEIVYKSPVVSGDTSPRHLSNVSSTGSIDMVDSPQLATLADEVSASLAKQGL

Row | Binder | Kd [1] [nM] | Kd [2] [pM] | Kd [3] [nM]
1 | [dD]GG[dY][dQ][dI][dL][dF][dK][dI][dP]GG[dH][dI][dH]-NH2 (also: CF633 label, position not given here) | 0.308 | – | –
2 | [dD]GG[dY][dQ][dI][dL][dF][dK][dI][dP]GG[dH][dI][dH]-NH2 (N-terminus assumed; SMILES CC[C@@H](C)[C@@H](NC(=O)[C@@H](Cc1c[nH]cn1)NC(=O)CNC(=O)CNC(=O)[C@H]1CCCN1C(=O)[C@H](NC(=O)[C@@H](CCCCN)NC(=O)[C@@H](Cc1ccccc1)NC(=O)[C@@H](CC(C)C)NC(=O)[C@H](NC(=O)[C@@H](CCC(N)=O)NC(=O)[C@@H](Cc1ccc(O)cc1)NC(=O)CNC(=O)CNC(=O)[C@H](N)CC(=O)O)[C@H](C)CC)[C@H](C)CC)C(=O)N[C@H](Cc1c[nH]cn1)C(N)=O) | – | – | 1.3

More lines, now with the values ahead:

Row | Kd [1] [nM] | Kd [2] [pM] | Kd [3] [nM] | Binder
3 | 11.7 | – | – | [dD]GG[dY][dQ][dI][dL][dF][dK][dI][dP]GG[dH][dI][dH][dR][dR][dR][dR][dR]-NH2 (also: CF633 label, position not given here)
4 | – | 7 | 6.1 | [dD]GG[dY][dQ][dI][dL][dF][dK][dI][dP]GG[dH][dI][dH][dR][dR][dR][dR][dR]-NH2 (N-terminus assumed; SMILES CC[C@@H](C)[C@@H](NC(=O)[C@@H](Cc1c[nH]cn1)NC(=O)CNC(=O)CNC(=O)[C@H]1CCCN1C(=O)[C@H](NC(=O)[C@@H](CCCCN)NC(=O)[C@@H](Cc1ccccc1)NC(=O)[C@@H](CC(C)C)NC(=O)[C@H](NC(=O)[C@@H](CCC(N)=O)NC(=O)[C@@H](Cc1ccc(O)cc1)NC(=O)CNC(=O)CNC(=O)[C@H](N)CC(=O)O)[C@H](C)CC)[C@H](C)CC)C(=O)N[C@H](Cc1c[nH]cn1)C(=O)N[C@H](CCCNC(=N)N)C(=O)N[C@H](CCCNC(=N)N)C(=O)N[C@H](CCCNC(=N)N)C(=O)N[C@H](CCCNC(=N)N)C(=O)N[C@H](CCCNC(=N)N)C(N)=O)
